Test results: paper doi:10.1101/2025.02.05.636571

System: P41676
Experiment: SEC

PK2 C181S/C211S (full-length PK2 from the baculovirus AcMNPV, stable mutant, C-terminal His-tag)
percent in the monomer peak: monomer (62%)
